These results are taken from patent US20190375835A1.

In one assay the target is macrophages (FcR). Description: cell-based or functional assay.
The target in a further assay is soluble TNF-alpha (UniProt P01375). The experiment in a line: cell-based or functional assay.
Chain of soluble TNF-alpha (P01375 77-233 limits assumed): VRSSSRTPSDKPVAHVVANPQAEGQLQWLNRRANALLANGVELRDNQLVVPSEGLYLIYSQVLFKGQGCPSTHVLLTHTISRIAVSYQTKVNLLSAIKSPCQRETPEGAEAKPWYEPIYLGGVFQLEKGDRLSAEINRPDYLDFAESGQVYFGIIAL

As for “Humira antibody from Abbott (commercial adalimumab)”, the phagocytosis (MFI 37°C - MFI 4°C) in the presence of IVIg 1 mg/ml with macrophages (FcR) stood at 6.72 MFI. Further, the phagocytosis value (MFI 37°C - MFI 4°C, arbitrary unit) with soluble TNF-alpha stood at 12.5 MFI.
As for “transgenically produced adalimumab antibody (purified from the milk of transgenic goats, glycosylated)”, the phagocytosis (MFI 37°C - MFI 4°C) in the presence of IVIg 1 mg/ml with macrophages (FcR) is 13.3 MFI. Also, the phagocytosis value (MFI 37°C - MFI 4°C, arbitrary unit) in the assay with soluble TNF-alpha turned out to be 15 MFI.
